Here are results for 14 molecules from patent publication US20210206856A1 (PANDION OPERATIONS, published 2021).

The labels stand for the following.
T1: mouse MAdCAM expressed on cells (mouse, UniProt Q61826 22-405)
T1 construct: whole, on cells
T1 sequence (looked up): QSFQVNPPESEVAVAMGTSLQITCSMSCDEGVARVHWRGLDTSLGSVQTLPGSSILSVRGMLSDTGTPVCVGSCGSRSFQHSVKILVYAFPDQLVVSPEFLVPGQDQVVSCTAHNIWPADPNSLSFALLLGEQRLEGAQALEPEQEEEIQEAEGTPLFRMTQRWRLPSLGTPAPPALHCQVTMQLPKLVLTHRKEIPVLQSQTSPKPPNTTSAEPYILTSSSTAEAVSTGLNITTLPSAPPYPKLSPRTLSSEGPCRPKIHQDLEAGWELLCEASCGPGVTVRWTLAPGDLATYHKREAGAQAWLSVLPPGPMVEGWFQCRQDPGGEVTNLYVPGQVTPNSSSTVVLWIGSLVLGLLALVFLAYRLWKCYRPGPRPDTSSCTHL

T2: human MAdCAM expressed on cells (human, UniProt Q13477 19-382)
T2 construct: whole, on cells; also called MADCAM1
T2 sequence (looked up): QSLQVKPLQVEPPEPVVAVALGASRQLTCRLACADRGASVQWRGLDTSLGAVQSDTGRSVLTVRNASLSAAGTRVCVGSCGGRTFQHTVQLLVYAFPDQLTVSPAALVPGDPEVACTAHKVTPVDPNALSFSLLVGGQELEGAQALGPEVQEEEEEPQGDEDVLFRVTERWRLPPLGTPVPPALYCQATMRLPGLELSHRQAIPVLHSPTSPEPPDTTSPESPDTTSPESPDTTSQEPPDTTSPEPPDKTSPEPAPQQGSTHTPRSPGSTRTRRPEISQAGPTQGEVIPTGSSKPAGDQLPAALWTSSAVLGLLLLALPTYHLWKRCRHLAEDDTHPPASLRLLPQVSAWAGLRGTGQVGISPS

B1: MAdCAM Antibody Table 1 Clone 33 (scFv)
scFv: QVQLVQSGAEVKKPGASVKVSCKASGYTFTSYGISWVRQAPGQGLEWMGWMHPKSGDTGLTQKFQGRVTMTRDTSTSTVYMELSSLRSEDTAVYYCARDTPYYYYGMDVWGQGTTVTVSSGGGGSGGGGSGGGGSGGGGSDIQMTQSPSSLSASVGDRVTITCRASQSISSWLAWYQQKPGKAPKLLIYAASSLQSGVPSRFSGSGSGTDFTLTISSLQPEDFATYYCQQSYSVPITFGQGTKVEIK
B2: MAdCAM Antibody Table 1 Clone 29 (scFv)
scFv: QVQLVQSGAEVKKPGASVKVSCKASGYTFTSYYMHWVRQAPGQGLEWMAWMNPNSGNTGYAQKFQGRVTMTRDTSTSTVYMELSSLRSEDTAVYYCARDYDFWSGSLGYWGQGTLVTVSSGGGGSGGGGSGGGGSGGGGSDIQMTQSPSSLSASVGDRVTITCRASQGISNYLAWYQQKPGKAPKLLIYAASSLQSGVPSRFSGSGSGTDFTLTISSLQPEDFATYYCQQSYSTPWTFGQGTKVEIK
B3: MAdCAM Antibody Table 1 Clone 32 (scFv)
scFv: QVQLVQSGAEVKKPGASVKVSCKASGYTLTDYYMHWVRQAPGQGLEWMGIINPSGGSTSYAQKFQGRVTMTRDTSTSTVYMELSSLRSEDTAVYYCAREEYSSSSGYFDYWGQGTLVTVSSGGGGSGGGGSGGGGSGGGGSDIQMTQSPSSLSASVGDRVTITCRASQGISSWLAWYQQKPGKAPKLLIYAASSLQSGVPSRFSGSGSGTDFTLTISSLQPEDFATYYCQQSYSTPLTFGQGTKVEIK
B4: MAdCAM Antibody Table 1 Clone 17 (scFv)
scFv: EVQLLESGGGLVQPGGSLRLSCAASGFTFSDSAMHWVRQAPGKGLEWVSAISGSGSTIYYADSVKGRFTISRDNSKNTLYLQMNSLRAEDTAVYYCVSDIAVAGHWYFDLWGRGTLVTVSSGGGGSGGGGSGGGGSGGGGSDIQMTQSPSSLSASVGDRVTITCRASQSISTFLNWYQQKPGKAPKLLIYAASRLEGGVPSRFSGSGSGTDFTLTISSLQPEDFATYYCQQANSFPLTFGPGTKVDIK
B5: MAdCAM Antibody Table 1 Clone 21 (scFv)
scFv: EVQLLESGGGLVQPGGSLRLSCAASGFTFSNAWMSWVRQAPGKGLEWVSTIVGNGGATYYADSVKGRFTISRDNSKNTLYLQMNSLRAEDTAVYYCARDNPLRWQGMDVWGQGTLVTVSSGGGGSGGGGSGGGGSGGGGSDIQMTQSPSSLSASVGDRVTITCRASQDISNYLNWYQQKPGKAPKLLIYAASSLQSGVPSRFSGSGSGTDFTLTISSLQPEDFATYYCQQSYSIPPTFGPGTKVDIK
B6: MAdCAM Antibody Table 1 Clone 37 (scFv)
scFv: QVQLVQSGAEVKKPGASVKVSCKASGYTFSKHFVHWVRQAPGQGLEWMGWMNPNSGNSGYAQKFQGRVTMTRDTSTSTVYMELSSLRSEDTAVYYCARGEGGYYYYGMDVWGQGTLVTVSSGGGGSGGGGSGGGGSGGGGSDIQMTQSPSSLSASVGDRVTITCRASQSISSWLAWYQQKPGKAPKLLIYAASTLQSGVPSRFSGSGSGTDFTLTISSLQPEDFATYYCQQSYSTPWTFGQGTKVEIK
B7: MAdCAM Antibody Table 1 Clone 31 (scFv)
scFv: QVQLVQSGAEVKKPGASVKVSCKASGYTFTSYYMHWVRQAPGQGLEWMGIINPSGGSTSYAQKFQGRVTMTRDTSTSTVYMELSSLRSEDTAVYYCARDTGYSYGRYYYYGMDVWGQGTLVTVSSGGGGSGGGGSGGGGSGGGGSDIQMTQSPSSLSASVGDRVTITCRASQSIGRWLAWYQQKPGKAPKLLIYDASNLQSGVPSRFSGSGSGTDFTLTISSLQPEDFATYYCQQSYSIPITFGQGTKVEIK
B8: MAdCAM Antibody Table 1 Clone 36 (scFv)
scFv: B7 scFv with S31G, Y32H, L120T, Q245G
B9: MAdCAM Antibody Table 1 Clone 10 (scFv)
scFv: QVQLVQSGAEVKKPGASVKVSCKASGYTLTTWYMYWVRQAPGQGLEWMGWINPNRGATNYAQKFQGRVTMTRDTSTSTVYMELSSLRSEDTAVYYCAKGDLWGAMDVWGQGTLVTVSSGGGGSGGGGSGGGGSGGGGSDIQMTQSPSSLSASVGDRVTITCRASDNIGSWLAWYQQKPGKAPKLLIYAASSLQSGVPSRFSGSGSGTDFTLTISSLQPEDFATYYCQQGYSTPPTFGQGTKVEIK
B10: MAdCAM Antibody Table 1 Clone 26 (scFv)
scFv: B9 scFv with L113T
B11: MAdCAM Antibody Table 1 Clone 28 (scFv)
scFv: QVQLVQSGAEVKKPGASVKVSCKASGYTFTDYFLHWVRQAPGQGLEWMGWMNPTSGNTGYAQKFQGRVTMTRDTSTSTVYMELSSLRSEDTAVYYCAREGEGSGFDYWGQGTLVTVSSGGGGSGGGGSGGGGSGGGGSDIQMTQSPSSLSASVGDRVTITCRASQGINSWLAWYQQKPGKAPKLLIYDASNLETGVPSRFSGSGSGTDFTLTISSLQPEDFATYYCQQSYSTPLTFGGGTKVEIK
B12: MAdCAM Antibody Table 1 Clone 27 (scFv)
scFv: QVQLVQSGAEVKKPGASVKVSCKASGYTFTGYYIHWVRQAPGQGLEWMGWMNPNSGNTGYAQKFQGRVTMTRDTSTSTVYMELSSLRSEDTAVYYCARDPGFLGYCSGGSCYDGWFDPWGQGTLVTVSSGGGGSGGGGSGGGGSGGGGSDIQMTQSPSSLSASVGDRVTITCRASQSISSYLHWYQQKPGKAPKLLIYAASSLQSGVPSRFSGSGSGTDFTLTISSLQPEDFATYYCQQSYTAPYTFGQGTKLEIK
B13: MAdCAM Antibody Table 1 Clone 35 (scFv)
scFv: EVQLLESGGGLVQPGGSLRLSCAASGFSFSSYTMNWVRQAPGKGLEWVSFITSSSRTIYYADSVKGRFTISRDNSKNTLYLQMNSLRAEDTAVYYCARDRRGDYGDSWYFDLWGRGTLVTVSSGGGGSGGGGSGGGGSGGGGSEIVMTQSPATLSVSPGERATLSCRASQSVRNYLAWYQQKPGQAPRLLIYGASTRATGIPARFSGSGSGTEFTLTISSLQSEDFAVYYCQQYGSSPLTFGGGTKVEIK
B14: MAdCAM Antibody Table 1 Clone 16 (scFv)
scFv: EVQLLESGGGLVQPGGSLRLSCAASGFTFEDYAMHWVRQAPGKGLEWVSYLNSDGGSTSYADSVKGRFTISRDNSKNTLYLQMNSLRAEDTAVYYCAKDYCTNGVCAFDYWGQGTLVTVSSGGGGSGGGGSGGGGSGGGGSDIQMTQSPSSLSASVGDRVTITCRASQSISTYLNWYQQKPGKAPKLLIYDASNLETGVPSRFSGSGSGTDFTLTISSLQPEDFATYYCQQSYTIPITFGQGTRLEIK

Where a chain is given by its changes, count along the chain named.

The target in the first test is T1, mouse MAdCAM expressed on cells. Put plainly: cell binding.
As for B1, the binding result is on record as “no binding”.

Take B2: the binding result was “no binding”.

As to B3, the binding result is “no binding”.

For the molecule B4, the binding result is “no binding”.

With B5, the binding result was “no binding”.

Turning to B6, the binding result is “no binding”.

For the molecule B7, the binding result is “no binding”.

On to B8, for which the binding result is reported as “no binding”.

Regarding B9, the binding result is on record as “no binding”.

Take B10: the binding result was “no binding”.

Turning to B11, the binding result is recorded as “no binding”.

As to B12, the binding result is “no binding”.

B13: the binding result is “no binding”.

Take B14: the binding result is listed as “no binding”.

In a further test the target is T2, human MAdCAM expressed on cells. Put plainly: cell binding.
B1: the binding result is reported as “binds”.

As for B2, the binding result is “binds”.

For the molecule B3, the binding result was “binds”.

Consider B4, for which the binding result is recorded as “binds”.

For the molecule B5, the binding result is recorded as “binds”.

Turning to B6, the binding result is recorded as “binds”.

On to B7, for which the binding result was “binds”.

In the case of B8, the binding result was “binds”.

With B9, the binding result is “binds”.

With B10, the binding result is listed as “binds”.

B11: the binding result is on record as “binds”.

Take B12: the binding result was “binds”.

Consider B13, for which the binding result is “binds”.

In the case of B14, the binding result is “binds”.
